Laboratory results reported in patent US20250145710A1 (INTEGRAL MOLECULAR, published 2025).
Each block holds one binder with its values, some of them ahead of it.

Assays:
human CLDN6 [1] = target: T1, human CLDN6 (human, UniProt P56747 1-220); assay: flow cytometry on a CLDN negative parental cell line transfected with CLDN6, CLDN4, CLDN3 or CLDN9 (FIG. 12A)
T1 construct: whole, on cells; Expressed on a CLDN-negative parental cell line, HEK293F cells or K562 cells by transfection; Endogenous on OV-90 and OVCAR3 cells; also called claudin 6; Claudin 6
T1 sequence (looked up): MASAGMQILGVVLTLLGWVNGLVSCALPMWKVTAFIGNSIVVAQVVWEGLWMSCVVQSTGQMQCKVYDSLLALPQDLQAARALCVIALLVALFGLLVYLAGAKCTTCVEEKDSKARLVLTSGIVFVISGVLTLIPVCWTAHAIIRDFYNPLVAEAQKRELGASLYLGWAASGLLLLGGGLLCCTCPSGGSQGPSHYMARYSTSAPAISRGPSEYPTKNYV

human CLDN9 = target: T2, human CLDN9 (human, UniProt O95484 1-217); assay: binding to cells expressing CLDN9 (FIG. 33B, FIG. 34 text)
T2 construct: whole, on cells; also called claudin 9
T2 sequence (looked up): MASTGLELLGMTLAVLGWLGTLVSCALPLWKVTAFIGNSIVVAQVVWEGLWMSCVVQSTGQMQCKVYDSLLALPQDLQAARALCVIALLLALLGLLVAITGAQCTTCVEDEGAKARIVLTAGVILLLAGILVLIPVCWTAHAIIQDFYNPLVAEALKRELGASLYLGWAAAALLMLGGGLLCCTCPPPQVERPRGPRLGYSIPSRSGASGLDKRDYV

human CLDN4 = target: T3, human CLDN4 (human, UniProt O14493 1-209); assay: binding to cells expressing CLDN4 (FIG. 34 text)
T3 construct: whole, on cells; also called claudin 4
T3 sequence (looked up): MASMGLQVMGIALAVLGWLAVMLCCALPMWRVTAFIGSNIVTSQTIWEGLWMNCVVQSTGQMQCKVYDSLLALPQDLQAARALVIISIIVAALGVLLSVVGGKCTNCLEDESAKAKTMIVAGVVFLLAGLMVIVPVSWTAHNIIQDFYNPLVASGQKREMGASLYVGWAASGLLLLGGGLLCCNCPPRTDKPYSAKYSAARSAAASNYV

human CLDN6 [2] = target: T1, human CLDN6; assay: cell-based or functional assay
human CLDN3 = target: T4, human CLDN3 (human, UniProt O15551 1-220); assay: binding to cells expressing CLDN3 (FIG. 34 text)
T4 construct: whole, on cells; also called claudin 3
T4 sequence (looked up): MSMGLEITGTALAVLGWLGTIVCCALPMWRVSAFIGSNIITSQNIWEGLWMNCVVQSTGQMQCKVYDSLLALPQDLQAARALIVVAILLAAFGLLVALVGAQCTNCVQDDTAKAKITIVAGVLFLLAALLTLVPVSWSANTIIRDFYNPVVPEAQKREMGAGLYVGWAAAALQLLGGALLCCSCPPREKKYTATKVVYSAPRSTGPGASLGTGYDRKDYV

human CLDN6 [3] = target: T1, human CLDN6; assay: flow cytometry on a CLDN negative parental cell line transfected with CLDN6, CLDN4, CLDN3 or CLDN9 (FIG. 12D)
human CLDN6 [4] = target: T1, human CLDN6; assay: flow cytometry on a CLDN negative parental cell line transfected with CLDN6, CLDN4, CLDN3 or CLDN9 (FIG. 12C)

B1: IMC-2-7 tandem scFv antibody (bispecific antibody)
scFv: SYELTQPPSVSVSPGQTARITCSAGSGLYGWYQQKPGQAPVLVIYGTNKRPSGIPERFSGSSSGTTVTLTISGVQAEDEADYYCGSADSSTNAGIFGGGTKLTVLGGGGSGGGGSGGGGSEVQLLESGGGLVQPGGSLRLSCAASGFTFSSYAMNWVRQAPGKGLEWVAGISSSGRYTGYADSVKGRFTISRDNSKNTLYLQMNSLRAEDTAVYYCAKSVGSGVSWSGYVATSLDAWGQGTLVTVSSGGGGSEVQLVESGGGLVQPGGSLRLSCAASGFTFSTYAMNWVRQAPGKGLEWVGRIRSKYNNYATYYADSVKGRFTISRDDSKNTLYLQMNSLRAEDTAVYYCVRHGNFGDSYVSWFAYWGQGTLVTVSSGKPGSGKPGSGKPGSGKPGSQAVVTQEPSLTVSPGGTVTLTCGSSTGAVTTSNYANWVQQKPGKSPRGLIGGTNKRAPGVPARFSGSLLGGKAALTISGAQPEDEADYYCALWYSNHWVFGGGTKLTVL
notes: A single-chain tandem scFv (anti-CLDN6 scFv, then anti-CD3 scFv)
binding result (human CLDN6 [1]): binds

B2: IMC-16-3 scFv-Fab IgG antibody (bispecific antibody)
heavy: EVQLLESGGGLVQPGGSLRLSCAASGFTFSSYAMNWVRQAPGKGLEWVAGISSSGRYTGYADSVKGRFTISRDNSKNTLYLQMNSLRAEDTAVYYCAKSVGSGVSWSGYVATSLDAWGQGTLVTVSSASTKGPSVFPLAPSSKSTSGGTAALGCLVKDYFPEPVTVSWNSGALTSGVHTFPAVLQSSGLYSLSSVVTVPSSSLGTQTYICNVNHKPSNTKVDKKVEPKSCDKTHTCPPCPAPEAAGGPSVFLFPPKPKDTLMISRTPEVTCVVVDVSHEDPEVKFNWYVDGVEVHNAKTKPREEQYNSTYRVVSVLTVLHQDWLNGKEYKCKVSNKALPAPIEKTISKAKGQPREPQVYTLPPSREEMTKNQVSLWCLVKGFYPSDIAVEWESNGQPENNYKTTPPVLDSDGSFFLYSKLTVDKSRWQQGNVFSCSVMHEALHNHYTQKSLSLSPGK
light: SYELTQPPSVSVSPGQTARITCSAGSGLYGWYQQKPGQAPVLVIYGTNKRPSGIPERFSGSSSGTTVTLTISGVQAEDEADYYCGSADSSTNAGIFGGGTKLTVLGQPKAAPSVTLFPPSSEELQANKATLVCLISDFYPGAVTVAWKADSSPVKAGVETTTPSKQSNNKYAASSYLSLTPEQWKSHRSYSCQVTHEGSTVEKTVAPTECS
scFv: EVQLVESGGGLVQPGGSLRLSCAASGFTFSTYAMNWVRQAPGKGLEWVGRIRSKYNNYATYYADSVKGRFTISRDDSKNTLYLQMNSLRAEDTAVYYCVRHGNFGDSYVSWFAYWGQGTLVTVSSGKPGSGKPGSGKPGSGKPGSQAVVTQEPSLTVSPGGTVTLTCGSSTGAVTTSNYANWVQQKPGKSPRGLIGGTNKRAPGVPARFSGSLLGGKAALTISGAQPEDEADYYCALWYSNHWVFGGGTKLTVLASPKSSDKTHTCPPCPAPEAAGGPSVFLFPPKPKDTLMISRTPEVTCVVVDVSHEDPEVKFNWYVDGVEVHNAKTKPREEQYNSTYRVVSVLTVLHQDWLNGKEYKCKVSNKALPAPIEKTISKAKGQPREPQVYTLPPSREEMTKNQVSLSCAVKGFYPSDIAVEWESNGQPENNYKTTPPVLDSDGSFFLVSKLTVDKSRWQQGNVFSCSVMHEALHNHYTQKSLSLSPGK
notes: also called IMC-16-3 scFv-Fab IgG bispecific antibody
binding result (human CLDN9): no binding | binding result (human CLDN4): no binding | cytokine activation assay (IL-6, IL-2, TNF-alpha, IL-8) in human PBMC co-cultured with K562 cells (human CLDN6 [2]): ~10 fold more potent than RefMAB #3 | cytotoxicity assay in OV-90 ovarian cancer cells with human PBMC, two Effector:Target ratios (human CLDN6 [2]): ~10 fold more potent than RefMAB #3 | binding result (human CLDN3): no binding

Second part, the binder after the results:

binding result (human CLDN6 [3]): binds
B3: IMC-21-1 IgG-(scFv)2 antibody (bispecific antibody)
heavy: not shown
light: SYELTQPPSVSVSPGQTARITCSAGSGLYGWYQQKPGQAPVLVIYGTNKRPSGIPERFSGSSSGTTVTLTISGVQAEDEADYYCGSADSSTNAGIFGGGTKLTVLGQPKAAPSVTLFPPSSEELQANKATLVCLISDFYPGAVTVAWKADSSPVKAGVETTTPSKQSNNKYAASSYLSLTPEQWKSHRSYSCQVTHEGSTVEKTVAPTECS
notes: also called MC-21-1 antibody

binding result (human CLDN6 [4]): binds
B4: IMC-16-15 scFv-Fab IgG antibody (bispecific antibody)
heavy: EVQLLESGGGLVQPGGSLRLSCAASGFTFSSYAMNWVRQAPGKGLEWVAGISSSGRYTGYADSVKGRFTISRDNSKNTLYLQMNSLRAEDTAVYYCAKSMGSGVSWSGYVATSIDVWGQGTLVTVSSASTKGPSVFPLAPSSKSTSGGTAALGCLVKDYFPEPVTVSWNSGALTSGVHTFPAVLQSSGLYSLSSVVTVPSSSLGTQTYICNVNHKPSNTKVDKKVEPKSCDKTHTCPPCPAPEAAGGPSVFLFPPKPKDTLMISRTPEVTCVVVDVSHEDPEVKFNWYVDGVEVHNAKTKPREEQYNSTYRVVSVLTVLHQDWLNGKEYKCKVSNKALPAPIEKTISKAKGQPREPQVYTLPPSREEMTKNQVSLWCLVKGFYPSDIAVEWESNGQPENNYKTTPPVLDSDGSFFLYSKLTVDKSRWQQGNVFSCSVMHEALHNHYTQKSLSLSPGK
light: SYELTQPPSVSVSPGQTARITCSAGSGLYGWYQQKPGQAPVLVIYGTNKRPSGIPERFSGSSSGTTVTLTISGVQAEDEADYYCGSADSSTNAGIFGGGTKLTVLGQPKAAPSVTLFPPSSEELQANKATLVCLISDFYPGAVTVAWKADSSPVKAGVETTTPSKQSNNKYAASSYLSLTPEQWKSHRSYSCQVTHEGSTVEKTVAPTECS
scFv: EVQLVESGGGLVQPGGSLRLSCAASGFTFSTYAMNWVRQAPGKGLEWVGRIRSKYNNYATYYADSVKGRFTISRDDSKNTLYLQMNSLRAEDTAVYYCVRHGNFGDSYVSWFAYWGQGTLVTVSSGKPGSGKPGSGKPGSGKPGSQAVVTQEPSLTVSPGGTVTLTCGSSTGAVTTSNYANWVQQKPGKSPRGLIGGTNKRAPGVPARFSGSLLGGKAALTISGAQPEDEADYYCALWYSNHWVFGGGTKLTVLASPKSSDKTHTCPPCPAPEAAGGPSVFLFPPKPKDTLMISRTPEVTCVVVDVSHEDPEVKFNWYVDGVEVHNAKTKPREEQYNSTYRVVSVLTVLHQDWLNGKEYKCKVSNKALPAPIEKTISKAKGQPREPQVYTLPPSREEMTKNQVSLSCAVKGFYPSDIAVEWESNGQPENNYKTTPPVLDSDGSFFLVSKLTVDKSRWQQGNVFSCSVMHEALHNHYTQKSLSLSPGK
